The values below come from paper PMC5131300, “Discovery and structural characterisation of new fold type IV-transaminases exemplify the diversity of this enzyme fold” (Scientific Reports, 2016).

The target of the assay is CpuTA1, fold type IV transaminase from Curtobacterium pusillum (Curtobacterium pusillum). Kind of assay: crystal structure; CpuTA1 12 mg/mL with 5 mM PLP, co-crystallised with 10 mM 3-amino benzoic acid, 2.4 M sodium malonate pH 7.0, micro-seeding, 289 K; two chains in the asymmetric unit; interface analysed with PDBePISA.

“CpuTA1, fold type IV transaminase from Curtobacterium pusillum (enzyme)” displayed a stoichiometry N of 2.

As usually defined, the stoichiometry N is the number of molecules, sites or subunits per partner or assembly.
